Data published in article PMC7600800.

T1: 14-3-3, endogenous, P63104
T1 chain: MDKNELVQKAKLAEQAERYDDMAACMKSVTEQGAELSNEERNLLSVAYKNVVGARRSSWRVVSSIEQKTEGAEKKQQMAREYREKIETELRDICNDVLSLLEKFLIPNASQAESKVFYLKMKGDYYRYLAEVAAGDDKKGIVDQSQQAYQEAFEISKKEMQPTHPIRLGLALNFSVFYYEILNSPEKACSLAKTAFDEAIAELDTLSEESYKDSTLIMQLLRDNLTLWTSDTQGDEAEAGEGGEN

B1: HA-tagged p27 wild type, P46527 R30A; N31A; L32A (protein)
chain: MSNVRVSNGSPSLERMDARQAEHPKPSACAAAFGPVDHEELTRDLEKHCRDMEEASQRKWNFDFQNHKPLEGKYEWQEVEKGSLPEFYYRPPRPPKGACKVPAQESQDVSGSRPAAPLIGAPANSEDTHLVDPKTDPSDSQTGLAEQCAGIRKRPATDDSSTQNKRANRTEENVSDGSPNAGSVEQTPKKPGLRRRQT

Tests used:
Test in all cases: anti-HA immunoprecipitation, SDS-PAGE and mass spectrometry
[1] = target: 78 kDa glucose-regulated protein precursor; conditions: lysates of transfected HEK293 cells; parent: 39
[2] = target: heat shock 70 kDa protein 1-like; conditions: lysates of transfected HEK293 cells; parent: 13
[3] = target: heat shock-related 70 kDa protein 2; conditions: lysates of transfected HEK293 cells; parent: 14
lamin-B1 isoform 1 = conditions: lysates of transfected HEK293 cells; parent: -
[4] = target: dnaJ homolog subfamily A member 1; conditions: lysates of transfected HEK293 cells; parent: 7
[5] = target: regulator of chromosome condensation isoform c; conditions: lysates of transfected HEK293 cells; parent: -
ruvB-like 1 = conditions: lysates of transfected HEK293 cells; parent: 3
[6] = target: T1, 14-3-3, endogenous, P63104; conditions: chain shown with the change; lysates of transfected HEK293 cells; parent: -

Molecule | other: number of unique peptides (unique peptides) [1] | other: number of unique peptides (unique peptides) [2] | other: number of unique peptides (unique peptides) [3] | other: number of unique peptides (unique peptides) (lamin-B1 isoform 1) | other: number of unique peptides (unique peptides) [4] | other: number of unique peptides (unique peptides) [5] | other: number of unique peptides (unique peptides) (ruvB-like 1) | other: number of unique peptides (unique peptides) [6]
HA-tagged p27 wild type (from UniProt P46527) R30A; N31A; L32A | 34 | 12 | 6 | 3 | 4 | 2 | 2 | –
B1 | – | – | – | – | – | – | – | 4
